According to article PMC6482348:

T1: endogenous mouse PrxI (mouse (endogenous in BMDMs)), P35700
T1 chain: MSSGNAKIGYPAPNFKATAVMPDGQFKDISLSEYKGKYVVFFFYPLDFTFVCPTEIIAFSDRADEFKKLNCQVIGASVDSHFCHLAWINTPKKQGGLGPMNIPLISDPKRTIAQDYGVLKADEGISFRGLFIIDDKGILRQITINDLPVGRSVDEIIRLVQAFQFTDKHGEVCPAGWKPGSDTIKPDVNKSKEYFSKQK

T2: endogenous mouse PrxII (mouse (endogenous in MEFs and BMDMs)), Q61171
T2 chain: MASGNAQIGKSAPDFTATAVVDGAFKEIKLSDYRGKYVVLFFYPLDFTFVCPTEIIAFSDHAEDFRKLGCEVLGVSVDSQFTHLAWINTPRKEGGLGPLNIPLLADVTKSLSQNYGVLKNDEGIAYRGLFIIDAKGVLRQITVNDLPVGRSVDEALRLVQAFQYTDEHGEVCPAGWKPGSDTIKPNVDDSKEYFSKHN

B1: endogenous mouse PrxI, P35700 1-199 (enzyme)
chain: T1 chain
B2: endogenous mouse PrxII, Q61171 1-198 (enzyme)
chain: T2 chain

Assays:
[1] = target: T1, endogenous mouse PrxI (mouse …); experiment: nonreducing SDS-PAGE and immunoblot of disulfide-linked complexes; conditions: remark: other sources report otherwise
[2] = target: T2, endogenous mouse PrxII (mouse …); experiment: as above; conditions: remark: other sources report otherwise

Row | Binder | stoichiometry N [1] | stoichiometry N [2]
1 | B1 | 2 | 
2 | B2 |  | 2
